# Measured values published in publication PMC3411398, “Quaternary structures of recombinant, cellular, and serum forms of Thymidine Kinase 1 from dogs and humans” (BMC Biochemistry, 2012).
# “And” between values parts separate entries of the source, which are not always exact repeats. Equal values may be shown once.
# Experiments:
# [1] = target: canine serum TK1 (dog (endogenous in serum)); assay: SEC; Superose 12, 0.01 M HEPES/KOH pH 7.6, 0.15 M NH4Cl, 0.02% NaN3; sera diluted 1:1, untreated or pre-treated with 20 mM DTE; fractions read by TK1 activity and immunoaffinity capture with western blot
# [2] = target: cellular (native) canine TK1 from MDCK cells (dog (endogenous in MDCK)); assay: SEC; Superose 12, 0.01 M HEPES/KOH pH 7.6, 0.15 M NH4Cl, 0.02% NaN3; crude cell extracts (MDCK, CEM), untreated or treated with DTE before chromatography; fractions read by TK1 activity and western blot
# [3] = target: the molecule itself; assay: SEC; Superose 12, 0.01 M HEPES/KOH pH 7.6, 0.15 M NH4Cl, 0.02% NaN3; sera diluted 1:1, untreated or pre-treated with 20 mM DTE; fractions read by TK1 activity and immunoaffinity capture with western blot
# [4] = target: the molecule itself; assay: SEC; Superose 12, 0.01 M HEPES/KOH pH 7.6, 0.15 M NH4Cl, 0.02% NaN3; crude cell extracts (MDCK, CEM), untreated or treated with DTE before chromatography; fractions read by TK1 activity and western blot
# [5] = target: the molecule itself; assay: SEC; Superose 12, 0.01 M HEPES/KOH pH 7.6, 0.15 M NH4Cl, 0.02% NaN3, no reducing agent in the buffer; 4 ug of freshly isolated recombinant TK1, untreated or pre-incubated with 20 mM DTE for 30 min on ice; fractions read by TK1 activity and western blot
molecule,measurement,setting,value
canine serum TK1 (enzyme),stoichiometry N,[1],2 and 4
cellular (native) canine TK1 from MDCK cells (enzyme),stoichiometry N,[2],2 and 4
"human serum TK1 (enzyme, human (endogenous in serum), UniProt P04183 1-234, looked up, thymidine kinase 1, human, serum form; polypeptide of apparent MW 25 kDa on western blot; source: endogenous, pooled sera from human patients with acute lymphocytic leukemia) MSCINLPTVLPGSPSKTRGQIQVILGPMFSGKSTELMRRVRRFQIAQYKCLVIKYAKDTRYSSSFCTHDRNTMEALPACLLRDVAQEALGVAVIGIDEGQFFPDIVEFCEAMANAGKTVIVAALDGTFQRKPFGAILNLVPLAESVVKLTAVCMECFREAAYTKRLGTEKEVEVIGGADKYHSVCRLCYFKKASGQPAGPDNKENCPVPGKPGEAVAARKLFAPQQILQCSPAN",stoichiometry N,[3],2 and 4
"cellular (native) human TK1 from CEM cells (enzyme, human (endogenous in CCRF-CEM), UniProt P04183 1-234, looked up, thymidine kinase 1, human, endogenous in CCRF-CEM cells; 25 kDa band on western blot; also called cytosolic human TK1; source: endogenous, crude CCRF-CEM cell extract) MSCINLPTVLPGSPSKTRGQIQVILGPMFSGKSTELMRRVRRFQIAQYKCLVIKYAKDTRYSSSFCTHDRNTMEALPACLLRDVAQEALGVAVIGIDEGQFFPDIVEFCEAMANAGKTVIVAALDGTFQRKPFGAILNLVPLAESVVKLTAVCMECFREAAYTKRLGTEKEVEVIGGADKYHSVCRLCYFKKASGQPAGPDNKENCPVPGKPGEAVAARKLFAPQQILQCSPAN",stoichiometry N,[4],2 and 4
"recombinant human thymidine kinase 1 (enzyme, UniProt P04183 1-234, looked up, thymidine kinase 1, human, full-length cDNA; vector pEXP-5NT/TOPO; also called hTK1; human TK1) MSCINLPTVLPGSPSKTRGQIQVILGPMFSGKSTELMRRVRRFQIAQYKCLVIKYAKDTRYSSSFCTHDRNTMEALPACLLRDVAQEALGVAVIGIDEGQFFPDIVEFCEAMANAGKTVIVAALDGTFQRKPFGAILNLVPLAESVVKLTAVCMECFREAAYTKRLGTEKEVEVIGGADKYHSVCRLCYFKKASGQPAGPDNKENCPVPGKPGEAVAARKLFAPQQILQCSPAN",stoichiometry N,[5],2 and 4
